The record followed here is PMC12338045 (Science (New York, N.Y.), 2025).

The target of one experiment is Mcm3 (yeast) (budding yeast, UniProt P24279 1-971). The experiment is described as follows: cryo-EM structure.
A further experiment has as its target T1, Mcm4 (yeast) (budding yeast, UniProt P30665 1-933).
T1 sequence: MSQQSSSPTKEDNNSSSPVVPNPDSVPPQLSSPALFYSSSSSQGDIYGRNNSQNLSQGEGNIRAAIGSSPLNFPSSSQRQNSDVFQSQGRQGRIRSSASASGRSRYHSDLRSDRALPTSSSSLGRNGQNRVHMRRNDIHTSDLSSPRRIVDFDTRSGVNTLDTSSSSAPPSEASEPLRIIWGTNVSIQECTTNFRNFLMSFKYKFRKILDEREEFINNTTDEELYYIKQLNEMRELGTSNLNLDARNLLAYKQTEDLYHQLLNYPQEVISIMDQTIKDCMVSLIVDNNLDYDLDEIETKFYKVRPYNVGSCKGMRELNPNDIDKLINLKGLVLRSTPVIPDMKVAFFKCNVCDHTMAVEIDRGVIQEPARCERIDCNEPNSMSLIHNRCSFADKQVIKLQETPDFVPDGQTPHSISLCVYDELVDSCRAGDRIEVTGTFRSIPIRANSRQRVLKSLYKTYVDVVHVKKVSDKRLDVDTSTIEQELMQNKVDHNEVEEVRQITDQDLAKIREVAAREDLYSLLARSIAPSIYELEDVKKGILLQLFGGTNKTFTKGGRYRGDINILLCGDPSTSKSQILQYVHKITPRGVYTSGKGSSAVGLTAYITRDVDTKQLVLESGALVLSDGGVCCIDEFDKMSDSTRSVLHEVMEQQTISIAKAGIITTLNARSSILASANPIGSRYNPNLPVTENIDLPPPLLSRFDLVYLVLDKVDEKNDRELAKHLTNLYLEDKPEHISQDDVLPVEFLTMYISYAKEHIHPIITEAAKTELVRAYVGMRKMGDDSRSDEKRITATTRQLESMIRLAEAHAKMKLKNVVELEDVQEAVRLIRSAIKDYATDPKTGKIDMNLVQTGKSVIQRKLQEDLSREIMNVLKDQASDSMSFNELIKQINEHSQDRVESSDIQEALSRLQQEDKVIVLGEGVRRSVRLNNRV
Put plainly: cryo-EM structure.

Sequence of Mcm3 (yeast) (P24279 whole entry): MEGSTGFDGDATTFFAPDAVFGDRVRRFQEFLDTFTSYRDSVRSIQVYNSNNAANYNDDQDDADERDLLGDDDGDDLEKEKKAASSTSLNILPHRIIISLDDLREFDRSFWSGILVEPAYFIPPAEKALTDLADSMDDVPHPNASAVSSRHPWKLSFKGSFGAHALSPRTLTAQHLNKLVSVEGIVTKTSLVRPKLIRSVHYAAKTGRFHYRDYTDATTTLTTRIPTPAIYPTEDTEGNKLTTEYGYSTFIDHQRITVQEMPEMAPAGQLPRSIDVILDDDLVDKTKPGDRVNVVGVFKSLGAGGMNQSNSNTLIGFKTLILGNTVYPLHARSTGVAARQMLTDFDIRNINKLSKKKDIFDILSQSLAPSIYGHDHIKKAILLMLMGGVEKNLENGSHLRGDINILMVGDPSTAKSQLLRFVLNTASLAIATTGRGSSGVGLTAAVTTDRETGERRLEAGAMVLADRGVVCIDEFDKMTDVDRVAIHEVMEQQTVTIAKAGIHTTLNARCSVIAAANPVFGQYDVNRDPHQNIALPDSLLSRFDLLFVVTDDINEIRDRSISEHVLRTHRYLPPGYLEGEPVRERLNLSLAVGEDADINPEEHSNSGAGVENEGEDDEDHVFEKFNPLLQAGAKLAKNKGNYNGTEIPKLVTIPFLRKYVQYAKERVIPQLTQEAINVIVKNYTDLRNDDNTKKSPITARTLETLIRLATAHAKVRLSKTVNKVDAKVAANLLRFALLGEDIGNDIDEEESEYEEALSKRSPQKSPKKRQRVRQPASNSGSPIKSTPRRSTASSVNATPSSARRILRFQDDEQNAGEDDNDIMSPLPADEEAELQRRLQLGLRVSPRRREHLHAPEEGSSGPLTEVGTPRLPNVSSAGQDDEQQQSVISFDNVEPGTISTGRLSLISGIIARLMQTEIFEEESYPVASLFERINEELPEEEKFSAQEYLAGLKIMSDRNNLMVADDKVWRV

B1: Mcm7 (yeast) (natural protein, budding yeast)
chain: MSAALPSIQLPVDYNNLFNEITDFLVTFKQDTLSSDATRNENEDENLDAENIEQHLLEKGPKYMAMLQKVANRELNSVIIDLDDILQYQNEKFLQGTQADDLVSAIQQNANHFTELFCRAIDNNMPLPTKEIDYKDDVLDVILNQRRLRNERMLSDRTNEIRSENLMDTTMDPPSSMNDALREVVEDETELFPPNLTRRYFLYFKPLSQNCARRYRKKAISSKPLSVRQIKGDFLGQLITVRGIITRVSDVKPAVEVIAYTCDQCGYEVFQEVNSRTFTPLSECTSEECSQNQTKGQLFMSTRASKFSAFQECKIQELSQQVPVGHIPRSLNIHVNGTLVRSLSPGDIVDVTGIFLPAPYTGFKALKAGLLTETYLEAQFVRQHKKKFASFSLTSDVEERVMELITSGDVYNRLAKSIAPEIYGNLDVKKALLLLLVGGVDKRVGDGMKIRGDINVCLMGDPGVAKSQLLKAICKISPRGVYTTGKGSSGVGLTAAVMKDPVTDEMILEGGALVLADNGICCIDEFDKMDESDRTAIHEVMEQQTISISKAGINTTLNARTSILAAANPLYGRYNPRLSPLDNINLPAALLSRFDILFLMLDIPSRDDDEKLAEHVTYVHMHNKQPDLDFTPVEPSKMREYIAYAKTKRPVMSEAVNDYVVQAYIRLRQDSKREMDSKFSFGQATPRTLLGIIRLSQALAKLRLADMVDIDDVEEALRLVRVSKESLYQETNKSKEDESPTTKIFTIIKKMLQETGKNTLSYENIVKTVRLRGFTMLQLSNCIQEYSYLNVWHLINEGNTLKFVDDGTMDTDQEDSLVSTPKLAPQTTASANVSAQDSDIDLQDA
For the molecule B1, the binding result with Mcm3 (yeast) and with Mcm4 (yeast) was “binds” throughout.
